Source: article doi:10.1101/2023.04.03.535362 (bioRxiv, 2023)

T1: RAD52 FL (human, UniProt P43351 1-418)
T1 sequence: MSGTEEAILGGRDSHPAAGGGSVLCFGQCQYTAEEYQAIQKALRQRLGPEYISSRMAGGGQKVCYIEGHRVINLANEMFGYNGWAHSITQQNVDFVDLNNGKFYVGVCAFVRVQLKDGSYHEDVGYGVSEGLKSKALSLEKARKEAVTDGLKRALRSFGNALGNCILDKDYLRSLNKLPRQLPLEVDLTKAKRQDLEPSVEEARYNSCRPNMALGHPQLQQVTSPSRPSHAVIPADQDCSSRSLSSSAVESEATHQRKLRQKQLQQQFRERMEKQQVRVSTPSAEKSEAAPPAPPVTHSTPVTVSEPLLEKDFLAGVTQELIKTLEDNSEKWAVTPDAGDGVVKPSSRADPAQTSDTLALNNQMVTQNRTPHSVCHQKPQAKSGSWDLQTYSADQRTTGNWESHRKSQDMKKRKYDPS


Tests used:
RAD52 FL = target: T1, RAD52 FL; test: fluorescence polarization
dynamic light scattering = target: the molecule itself; test: dynamic light scattering

| Binder | Kd (RAD52 FL) [nM] | stoichiometry N (dynamic light scattering) |
| --- | --- | --- |
| TTTTTTTTTTTTTTTTTTTTTTTTTTTTTT (ssDNA) [dT30 ssDNA] | 37.2 ± 0.4 |  |
| Histidine-tagged human RAD52 N-terminal domain (1-212) (domain or fragment, UniProt P43351 1-212, looked up) MSGTEEAILGGRDSHPAAGGGSVLCFGQCQYTAEEYQAIQKALRQRLGPEYISSRMAGGGQKVCYIEGHRVINLANEMFGYNGWAHSITQQNVDFVDLNNGKFYVGVCAFVRVQLKDGSYHEDVGYGVSEGLKSKALSLEKARKEAVTDGLKRALRSFGNALGNCILDKDYLRSLNKLPRQLPLEVDLTKAKRQDLEPSVEEARYNSCRPNM |  | ~11 |
